Results published in paper PMC3866644 (RNA, 2014).
Numbering of substitutions follows the chain as printed. Names may count otherwise.

How the values were obtained:
Assay in all cases: pull-down
His6 fusion Prp28 = molecular target: T1, His6 fusion Prp28 (yeast, UniProt P23394 1-588)
T1 sequence: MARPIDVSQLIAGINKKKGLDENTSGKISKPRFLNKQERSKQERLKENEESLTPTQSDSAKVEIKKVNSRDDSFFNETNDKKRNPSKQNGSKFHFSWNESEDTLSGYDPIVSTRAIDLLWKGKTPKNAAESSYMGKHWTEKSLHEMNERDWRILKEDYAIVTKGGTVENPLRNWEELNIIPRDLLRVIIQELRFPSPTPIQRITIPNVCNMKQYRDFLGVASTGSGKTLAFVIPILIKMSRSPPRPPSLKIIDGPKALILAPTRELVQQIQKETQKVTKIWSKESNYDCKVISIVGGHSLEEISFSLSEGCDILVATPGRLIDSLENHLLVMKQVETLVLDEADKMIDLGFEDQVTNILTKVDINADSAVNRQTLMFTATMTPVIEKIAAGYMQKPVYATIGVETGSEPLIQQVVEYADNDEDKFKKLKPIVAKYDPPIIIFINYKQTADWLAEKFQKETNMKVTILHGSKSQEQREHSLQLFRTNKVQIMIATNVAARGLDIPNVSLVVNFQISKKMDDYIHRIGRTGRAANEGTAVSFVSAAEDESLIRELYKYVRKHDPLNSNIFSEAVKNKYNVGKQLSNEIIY

[1] = molecular target: T2, His6 fusion Prp39, full-length (yeast, UniProt P39682 1-629)
T2 sequence: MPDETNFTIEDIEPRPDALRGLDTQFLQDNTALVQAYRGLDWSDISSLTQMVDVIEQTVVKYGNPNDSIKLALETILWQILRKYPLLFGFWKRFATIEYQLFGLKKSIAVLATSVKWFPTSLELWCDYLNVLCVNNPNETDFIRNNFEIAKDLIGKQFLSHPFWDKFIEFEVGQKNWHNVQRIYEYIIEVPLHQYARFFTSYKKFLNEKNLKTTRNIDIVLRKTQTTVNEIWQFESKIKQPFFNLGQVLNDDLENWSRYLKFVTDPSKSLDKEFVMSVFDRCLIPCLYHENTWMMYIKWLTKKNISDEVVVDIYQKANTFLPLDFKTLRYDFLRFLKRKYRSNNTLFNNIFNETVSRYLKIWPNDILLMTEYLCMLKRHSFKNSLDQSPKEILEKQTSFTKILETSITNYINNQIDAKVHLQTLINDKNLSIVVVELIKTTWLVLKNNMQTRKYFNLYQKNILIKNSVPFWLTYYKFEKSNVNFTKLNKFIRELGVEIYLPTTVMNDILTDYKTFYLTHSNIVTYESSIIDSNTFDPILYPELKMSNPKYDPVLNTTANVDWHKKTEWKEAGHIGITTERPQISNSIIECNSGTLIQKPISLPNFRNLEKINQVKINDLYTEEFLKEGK

[2] = molecular target: T3, His6 fusion Prp40, full-length (yeast, UniProt P33203 1-583)
T3 sequence: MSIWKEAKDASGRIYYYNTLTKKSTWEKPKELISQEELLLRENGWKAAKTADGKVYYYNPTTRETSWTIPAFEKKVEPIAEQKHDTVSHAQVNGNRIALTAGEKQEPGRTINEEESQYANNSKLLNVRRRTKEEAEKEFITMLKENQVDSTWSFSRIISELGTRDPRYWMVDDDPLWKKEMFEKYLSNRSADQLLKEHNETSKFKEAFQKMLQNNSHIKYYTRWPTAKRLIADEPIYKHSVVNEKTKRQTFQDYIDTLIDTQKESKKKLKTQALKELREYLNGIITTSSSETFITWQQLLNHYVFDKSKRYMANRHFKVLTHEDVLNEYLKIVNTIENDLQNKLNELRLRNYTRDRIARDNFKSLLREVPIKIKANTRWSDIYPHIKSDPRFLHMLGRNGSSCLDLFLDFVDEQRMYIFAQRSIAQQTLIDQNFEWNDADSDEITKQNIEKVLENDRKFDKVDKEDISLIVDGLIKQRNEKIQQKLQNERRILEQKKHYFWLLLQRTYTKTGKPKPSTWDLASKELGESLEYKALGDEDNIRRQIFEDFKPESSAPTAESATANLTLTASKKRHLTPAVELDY

B1: GST-fusion Prp8-NTD (Prp8 residues 1-330), wild-type sequence (domain or fragment)
chain: not shown
B1: binds (His6 fusion Prp28); binds [1]; binds [2].

B2: GST-fusion Prp8-NTD(P263L/W279G) (domain or fragment)
chain: MSGLPPPPPGFEEDSDLALPPPPPPPPGYEIEELDNPMVPSSVNEDTFLPPPPPPPSNFEINAEEIVDFTLPPPPPPPGLDELETKAEKKVELHGKRKLDIGKDTFVTRKSRKRAKKMTKKAKRSNLYTPKAEMPPEHLRKIINTHSDMASKMYNTDKKAFLGALKYLPHAILKLLENMPHPWEQAKEVKVLYHTSGAITFVNETPRVIEPVYTAQWSATWIAMRREKRDRTHFKRMRFPPFDDDEPPLSYEQHIENIEPLDLINLPLDSQDDEYVKDGLYDSRPLEEDSKKVNGTSYKKWSFDLPEMSNLYRLSTPLRDEVTDKNYYYL
B2: binds [1]; binds [2].

B3: GST-fusion Prp8-NTD(R226G) (domain or fragment)
chain: B2 chain with R226G, L263P, G279W
B3: binds [1]; binds [2].

B4: GST-fusion Prp8-NTD(D273G) (domain or fragment)
chain: B2 chain with L263P, D273G, G279W
B4: binds [1]; binds [2].
